B1: SEQ ID NO. 1050/1051: glycosyltransferase (DNA/protein SEQ ID NO) producing mogroside I from mogrol (protein, listed as Bacillus licheniformis)
chain: MRHKHIAIFNIPAHGHINPTLALTASLVKRGYRVTYPVTDEFVKAVEETGAEPLNYRSTLNIDPQQIRELMKNKKDMSQAPLMFIKEMEEVLPQLEALYENDKPDLILFDFMAMAGKLLAEKFGIEAVRLCSTYAQNEHFTFRSISEEFKIELTPEQEDALKNSNLPSFNFEDMFEPAKLNIVFMPRAFQPYGETFDERFSFVGPSLAKRKFQEKETPIISDSGRPVMLISLGTAFNAWPEFYHMCIEAFRDTKWQVIMAVGTTIDPESFDDIPENFSIHQRVPQLEILKKAELFITHGGMNSTMEGLNAGVPLVAVPQMPEQEITARRVEELGLGKHLQPEDTTAASLREAVSQTDGDPHVLKRIQDMQKHIKQAGGAEKAADEIEAFLAPAGVK
B2: SEQ ID NO. 1026/1027: CYP450 enzyme (DNA/protein SEQ ID NO) producing 11-OH cucurbitadienol (protein, listed as Cucumis sativus)
chain: MWTILLGLATLAIAYYIHWVNKWKDSKFNGVLPPGTMGLPLIGETIQLSRPSDSLDVHPFIQRKVKRYGPIFKTCLAGRPVVVSTDAEFNHYIMLQEGRAVEMWYLDTLSKFFGLDTEWLKALGLIHKYIRSITLNHFGAESLRERFLPRIEESARETLHYWSTQTSVEVKESAAAMVFRTSIVKMFSEDSSKLLTEGLTKKFTGLLGGFLTLPLNLPGTTYHKCIKDMKQIQKKLKDILEERLAKGVKIDEDFLGQAIKDKESQQFISEEFIIQLLFSISFASFESISTTLTLILNFLADHPDVVKELEAEHEAIRKARADPDGPITWEEYKSMNFTLNVICETLRLGSVTPALLRKTTKEIQIKGYTIPEGWTVMLVTASRHRDPEVYKDPDTFNPWRWKELDSITIQKNFMPFGGGLRHCAGAEYSKVYLCTFLHILFTKYRWRKLKGGKIARAHILRFEDGLYVNFTPKE
B3: SEQ ID NO. 1028/1029: CYP450 enzyme (DNA/protein SEQ ID NO) producing 11-OH cucurbitadienol (protein)
chain: MWTILLGLATLAIAYYIHWVNKWKDSKFNGVLPPGTMGLPLIGETIQLSRPSDSLDVHPFIQSKVKRYGPIFKTCLAGRPVVVSTDAEFNHYIMLQEGRAVEMWYLDTLSKFFGLDTEWLKALGLIHKYIRSITLNHFGAESLRERFLPRIEESARETLHYWSTQPSVEVKESAAAMVFRTSIVKMFSEDSSKLLTAGLTKKFTGLLGGFLTLPLNVPGTTYHKCIKDMKEIQKKLKDILEERLAKGVSIDEDFLGQAIKDKESQQFISEEFIIQLLFSISFASFESISTTLTLILNFLADHPDVAKELEAEHEAIRKARADPDGPITWEEYKSMNFTLNVICETLRLGSVTPALLRKTTKEIQIKGYTIPEGWTVMLVTASRHRDPEVYKDPDTFNPWRWKELDSITIQRNFMPFGGGLRHCAGAEYSKVYLCTFLHILFTKYRWRKLKGGKIARAHILRFEDGLYVNFTPKE
modifications: Cucumis melo
B4: SEQ ID NO. 1030/1031: CYP450 enzyme (DNA/protein SEQ ID NO) producing 11-OH cucurbitadienol (protein)
chain: MWTIGLCIVAVLVIYLSYRLNKWSNPKCNGILPPGSMGLPLIGETLQLIVPSYSLDLHPFIKKKAQKYGPIFRTSVAGSPIVVSIDPEFNHYIVKQEGRLVELWYLDSFSKLFSTEGENKTNAIGVVHKYIRSIALNHFGVDPLKEKLLPQIEEFVDKALQTWSSHPLVEMKHAASVMIFDFSAKLFISYDAENSPMKMSEKFTNILGGFMSFPLNIPGTTYHKCLKDRNEALSMLRKIFKERINSPKRHFEDLLDQAINDTDKEKFLPEDFIINVVFGLLFASFESISAALSLILNLLAEHPAVLQELTDEHKAILKNRESPNSILTWDEYKSMTFTHQVINEALRLGGVAPGLLRKALKDIEFKGYTIPAGWTIMLVNSAIQLNPNTYKDPLAFNPWRWKDLDSLFVSKNFMPFGGGIRQCVGAEYSKTFLATFLHVLVTKYRWTKVKGGTIVRNPILEFTDGLHIKFSAISN
modifications: Quercus suber
B5: SEQ ID NO. 1052/1053: glycosyltransferase (DNA/protein SEQ ID NO) producing mogroside I from mogrol (protein, listed as Siraitia grosvenorii)
chain: MEKGDTHILVFPFPSQGHINPLLQLSKRLIAKGIKVSLVTTLHVSNHLQLQGAYSNSVKIEVISDGSEDRLETDTMRQTLDRFRQKMTKNLEDFLQKAMVSSNPPKFILYDSTMPWVLEVAKEFGLDRAPFYTQSCALNSINYHVLHGQLKLPPETPTISLPSMPLLRPSDLPAYDFDPASTDTIIDLLTSQYSNIQDANLLFCNTFDKLEGEIIQWMETLGRPVKTVGPTVPSAYLDKRVENDKHYGLSLFKPNEDVCLKWLDSKPSGSVLYVSYGSLVEMGEEQLKELALGIKETGKFFLWVVRDTEAEKLPPNFVESVAEKGLVVSWCSQLEVLAHPSVGCFFTHCGWNSTLEALCLGVPVVAFPQWADQVTNAKFLEDVWKVGKRVKRNEQRLASKEEVRSCIWEVMEGERASEFKSNSMEWKKWAKEAVDEGGSSDKNIEEFVAMLKQT
B6: SEQ ID NO. 1054/1055: glycosyltransferase (DNA/protein SEQ ID NO) producing mogroside I from mogrol (protein, listed as Barbarea vulgaris)
chain: MVSEITHKSYPLHFVLFPFMAQGHMIPMVDIARLLAQRGVKITIVTTPHNAARFENVLSRAIESGLPISIVQVKLPSQEAGLPEGNETFDSLVSMELLVPFFKAVNMLEEPVQKLFEEMSPQPSCIISDFCLPYTSKIAKKFNIPKILFHGMCCFCLLCMHVLRKNREILENLKSDKEHFVVPYFPDRVEFTRPQVPMATYVPGEWHEIKEDIVEADKTSYGVIVNTYQELEPAYANDYKEARSGKAWTIGPVSLCNKVGADKAERGNKADIDQDECLKWLDSKEEGSVLYVCLGSICSLPLSQLKELGLGLEESQRPFIWVVRGWEKNKELLEWFSESGFEERVKDRGLLIKGWSPQMLILAHHSVGGFLTHCGWNSTLEGITSGIPLLTWPLFGDQFCNQKLVVQVLKVGVSAGVEEVTNWGEEEKIGVLVDKEGVKKAVEELMGESDDAKERRKRVKELGQLAQKAVEEGGSSHSNITSLLEDIMQLAQSNN
B7: SEQ ID NO. 1056/1057: glycosyltransferase (DNA/protein SEQ ID NO) producing mogroside I from mogrol (protein, listed as Barbarea vulgaris)
chain: MVSEITHKSYPLHFVLFPFMAQGHMIPMVDIARLLAQRGVKITIVTTPHNAARFENVLSRAIESGLPISIVQVKLPSQEAGLPEGNETFDSLVSTKLLVPFFKAVNMLEEPVQKLFEEMSPQPSCIISDFCLPYTSKIAKKFNIPKILFHGMCCFCLLCMHVLRKNREILENLKSDKEHFVVPYFPDRVEFTRPQVPLATYVPGEWHEIKEDMVEADKTSYGVIVNTYQELEPAYANGYKEARSGKAWTIGPVSLCNKVGADKAERGNKADIDQDECLKWLDSKEEGSVLYVCLGSICSLPLSQLKELGLGLEESQRPFIWVVRGWEKNKELLEWFSESGFEERVKDRGLLIKGWSPQMLILAHHSVGGFLTHCGWNSTLEGITSGVPLLTWPLFGDQFCNQKLVVQVLKVGVSAGVEEVTNWGEEEKIGVLVDKEGVKKAVEELMGESDDAKEIRKRVKELGQLAHKAVEEGGSSHSNITSLLEDIMQLAQPNN

How the values were obtained:
mogrol = test: Mogroside IA and/or IE production from mogrol by glycosyltransferases expressed in S. cerevisiae, LCMS; assay type: cell-based; conditions: 10 μM mogrol, 2-4 days at 30° C.; identified by LCMS
Description: (§1) DNA was obtained through gene synthesis either through Genescript, IDT, or Genewiz. For some of the cucurbitadienol synthases, cDNA or genomic DNA was obtained through 10-60 day old seedlings followed by PCR amplification using specific and degenerate primers. DNA was cloned through standard molecular biology techniques or through yeast gap repair cloning (Joska et al., 2014) into one of the following overexpression vectors: pESC-Ura, pESC-His, or pESC-LEU. Gene expression was regulated by one of the following promoters; Gall, Gal10, Tef1, or GDS. Yeast transformation was performed using Zymo Yeast Transformation Kit II. Yeast strains were grown in standard media (YPD or SC) containing the appropriate selection with 2% glucose or 2% galactose for induction of heterologous genes. Yeast strains were grown in shake flask or 96 well plates at 30° ° C., 140-250 rpm. When indicated, lanosterol synthase inhibitor, Ro 48-8071 (Cayman Chemicals) was added (50 ug/ml). Yeast samples producing mogrol precursors, mogrol and mogrosides were processed through one of the following: • Cucurbitadienol and 11-OH Cucurbitadienol: Samples cell pellets were lysed (Yeast Buster) followed by ethyl acetate extraction, drying, and resuspension in methanol. • ·Mogrol and Mogrosides: Samples cell pellets were lysed in 50% ETOH, incubated at 80° C. for 30 min, filtered, dried and resuspended in MeOH for LCMS screening.
For analyzing Mogroside IIIE & Compound 1, the LCMS method included the use of Fluoro-phenyl 2.1×100 mm column, gradient 15 to 30% B for 6 minutes, at flow rate of 0.55 ml/min. For analyzing yeast production of mogroside I during enzyme screening, the LCMS method used a Phenomenex Kinetex Polar C18, 4.6×100 mm, 2.6 μm column, and a gradient of 25% to 55% B over 3 minutes, and 100% B at 3.5 minutes with a flow rate of 1.5 ml/min. Detection by ESI source negative mode single ion monitoring of 683.4 for mogroside I and 799.4 for mogroside II.
Various glycosyltransferase proteins were expressed in S. cerevisiae grown in the presence of 10 μM mogrol for 2-4 days at 30° C., 140-250 rpm in either shake flask or 96 well plates. Glycosyltransferases leading to production of Mogroside IA (glycosylation of C24-OH position) and/or Mogroside IE (glycosylation of C3-OH position) are provided in Table 6. DNA and protein sequences for the enzymes are provided in SEQ IDs 1050-1071 (see Table 1).

cucurbitadienol = test: 11-OH cucurbitadienol production from cucurbitadienol by CYP450s expressed in S. cerevisiae, LCMS; assay type: cell-based; conditions: S. cerevisiae strain producing cucurbitadienol and expressing SgCPR; LCMS peak area of product vs. internal reference; hits over vector only control
Description: as §1
For analyzing 11-OH cucurbitadienol, the LCMS method included the use of C8 2.1×100 mm column, gradient 60 to 90% B for 6 minutes at flow rate of 0.55 ml/min. For the enzyme screening, the LCMS method used was a Waters Acquity UPLC Protein BEH C4, 2.1×100 mm, 1.7 μm column and a gradient of 40% to 80% over 5 minutes, 95% B from 5.1 to 5.6 minutes with a flow rate of 0.55 ml/min, and ESI source positive mode single ion monitoring of 425.4.
Additional CYP450s were expressed in S. cerevisiae strain producing cucurbitadienol and expressing SgCPR. DNA and protein sequences for the CYP450 enzymes are shown in SEQ IDs 871-890 and 1024-1049 (see Table 1).

Molecule	Mogroside IA (mogrol)	Mogroside IE (mogrol)	Peak Area 11-OH CCB (cucurbitadienol)
B1	2700609	not detected	–
B2	–	–	0.9893
B3	–	–	0.9703
B4	–	–	0.9207
B5	1605	22917	–
B6	659331	17857	–
B7	200270	4690	–

Reference: US12286661B2, “Methods for making high intensity sweeteners” (Firmenich Incorporated, priority 2018, dated 2025)
